Measurements reported in US20170355774A1.

Assays:
hGITR.hFc (human) = experiment: SPR 37C, mAb capture
hGITR.mmh (human) = experiment: SPR 37C, mAb capture
[1] = biological target: mfGITR.mmh (Macaca fasicularis); experiment: SPR 37C, mAb capture
[2] = biological target: human GITR (amino acids M1-V241, NCBI Accession #NP_004186.1) expressed on cells (human) (UniProt Q9Y5U5); experiment: cell-based or functional assay
Chain of human GITR (amino acids M1-V241, NCBI Accession #NP_004186.1) expressed on cells (human) (Q9Y5U5 26-241): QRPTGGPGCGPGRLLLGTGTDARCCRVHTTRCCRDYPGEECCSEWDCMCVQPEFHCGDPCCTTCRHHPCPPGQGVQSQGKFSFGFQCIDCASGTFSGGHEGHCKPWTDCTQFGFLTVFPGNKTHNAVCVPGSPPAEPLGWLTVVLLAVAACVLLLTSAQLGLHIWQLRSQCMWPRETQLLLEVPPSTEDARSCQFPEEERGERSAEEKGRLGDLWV

Chain of hGITR.mmh (human) (chain, as listed by the source limits assumed): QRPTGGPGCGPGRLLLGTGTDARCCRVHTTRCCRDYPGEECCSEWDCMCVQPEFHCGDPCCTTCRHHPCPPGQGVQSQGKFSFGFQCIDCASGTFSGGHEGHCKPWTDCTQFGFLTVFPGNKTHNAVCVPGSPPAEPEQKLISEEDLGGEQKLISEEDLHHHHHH
Chain of hGITR.hFc (human) (chain, as listed by the source limits assumed): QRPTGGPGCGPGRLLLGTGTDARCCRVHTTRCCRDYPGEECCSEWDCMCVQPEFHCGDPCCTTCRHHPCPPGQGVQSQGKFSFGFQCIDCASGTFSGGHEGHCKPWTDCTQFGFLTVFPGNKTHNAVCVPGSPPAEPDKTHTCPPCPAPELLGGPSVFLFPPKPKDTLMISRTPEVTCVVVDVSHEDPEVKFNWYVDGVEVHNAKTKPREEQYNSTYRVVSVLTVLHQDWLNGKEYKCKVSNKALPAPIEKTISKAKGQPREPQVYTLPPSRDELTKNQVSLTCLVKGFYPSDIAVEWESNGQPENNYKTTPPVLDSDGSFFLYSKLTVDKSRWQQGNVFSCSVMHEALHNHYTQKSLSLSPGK
Chain of mfGITR.mmh (Macaca fasicularis) (chain, as listed by the source limits assumed): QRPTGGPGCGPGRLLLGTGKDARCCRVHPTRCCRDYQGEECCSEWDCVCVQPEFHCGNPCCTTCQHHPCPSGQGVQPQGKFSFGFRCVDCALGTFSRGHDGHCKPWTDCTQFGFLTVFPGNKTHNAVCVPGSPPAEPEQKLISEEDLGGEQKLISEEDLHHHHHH

B1: Anti-GITR Control Ab I-mIgG1 (antibody, from another filing, V domains shown)
VH: QVTLKESGPGILKPSQTLSLTCSFSGFSLSTSGMGVGWIRQPSGKGLEWLAHIWWDDDKYYNPSLKSQLTISKDTSRNQVFLKITSVDTADAATYYCARTRRYFPFAYWGQGTLVTVSS
VL: DIVMTQSQKFMSTSVGDRVSVTCKASQNVGTNVAWYQQKPGQSPKALIYSASYRYSGVPDRFTGSGSGTDFTLTINNVHSEDLAEYFCQQYNTDPLTFGAGTKLEIK
B1 gave a Kd (hGITR.hFc (human)) of 20.4 nM, a koff (hGITR.hFc (human)) of 0.0078 s⁻¹ and a kon (hGITR.hFc (human)) of 382000 M⁻¹ s⁻¹. It also gave a t½ (hGITR.hFc (human)) of 90 s, a Kd (hGITR.mmh (human)) of 122 nM and a koff (hGITR.mmh (human)) of 0.0263 s⁻¹. The kon (hGITR.mmh (human)) was 216000 M⁻¹ s⁻¹, the t½ (hGITR.mmh (human)) was 24 s and the Kd [1] was 213 nM. It also gave a koff [1] of 0.0464 s⁻¹, a kon [1] of 218000 M⁻¹ s⁻¹ and a t½ [1] of 12 s. The % Activation, NF-kB-Luc, non-anchored [2] was 25%, the % Blocking, NF-kB-Luc, FcgR anchored [2] was 60% and the % Blocking, NF-kB-Luc, non-anchored [2] was 54%. It also gave an EC50, T-cell proliferation, FcgR anchored, donor 1 [2] of 37.2 nM, an EC50, T-cell proliferation, FcgR anchored, donor 3 [2] of 42.9 nM and an EC50, T-cell proliferation, FcgR anchored, donor 4 [2] of 3.5 nM. It also gave an EC50, T-cell proliferation, FcgR anchored, donor 5 [2] of 52.7 nM, an EC50, T-cell proliferation, FcgR anchored, mean [2] of 34.1 nM and an EC50, hGITR activation, NF-kB-Luc, FcgR anchored [2] of 0.1 nM. The EC50, hGITR activation, NF-kB-Luc, non-anchored [2] was 1.02 nM, the Fold Activation over basal signal, NF-kB-Luc, FcgR anchored [2] was 6 fold and the IC50, blocking of hGITRL stimulation, NF-kB-Luc, FcgR anchored [2] was 0.2 nM. The IC50, blocking of hGITRL stimulation, NF-kB-Luc, non-anchored [2] was 0.1 nM, the fold activation, T-cell proliferation, 22 nM, non-anchored, donor 1 [2] was 0.7 fold and the fold activation, T-cell proliferation, 22 nM, non-anchored, donor 2 [2] was 0.8 fold. The fold activation, T-cell proliferation, 22 nM, non-anchored, donor 3 [2] was 1 fold, the fold activation, T-cell proliferation, 22 nM, non-anchored, donor 4 [2] was 1 fold and the fold activation, T-cell proliferation, 22 nM, non-anchored, mean [2] was 0.9 fold. For the same binder, the fold activation, T-cell proliferation, 33 nM, FcgR anchored, donor 1 [2] was 2.8 fold, the fold activation, T-cell proliferation, 33 nM, FcgR anchored, donor 2 [2] was 2.8 fold and the fold activation, T-cell proliferation, 33 nM, FcgR anchored, donor 3 [2] was 1.4 fold. It also gave a fold activation, T-cell proliferation, 33 nM, FcgR anchored, donor 4 [2] of 1.1 fold, a fold activation, T-cell proliferation, 33 nM, FcgR anchored, donor 5 [2] of 1.7 fold and a fold activation, T-cell proliferation, 33 nM, FcgR anchored, mean [2] of 2 fold. It also gave a fold activation, T-cell proliferation, plate-bound Ab 10.6 nM, donor 1 [2] of 6 fold, a fold activation, T-cell proliferation, plate-bound Ab 10.6 nM, donor 2 [2] of 23 fold and a fold activation, T-cell proliferation, plate-bound Ab 10.6 nM, donor 3 [2] of 23 fold. It also gave a fold activation, T-cell proliferation, plate-bound Ab 10.6 nM, donor 4 [2] of 40 fold, a fold activation, T-cell proliferation, plate-bound Ab 10.6 nM, donor 5 [2] of 23 fold and a fold activation, T-cell proliferation, plate-bound Ab 10.6 nM, donor 6 [2] of 66 fold. For the same binder, the fold activation, T-cell proliferation, plate-bound Ab 10.6 nM, donor 7 [2] was 25 fold, the fold activation, T-cell proliferation, plate-bound Ab 10.6 nM, donor 8 [2] was 11 fold and the fold activation, T-cell proliferation, plate-bound Ab 10.6 nM, mean [2] was 27 fold.

B2: Anti-GITR Control Ab I-mIgG2a (antibody, from another filing, V domains shown)
VH: B1 VH
VL: B1 VL
B2 gave a % Blocking, NF-kB-Luc, FcgR anchored [2] of 74%, an EC50, hGITR activation, NF-kB-Luc, FcgR anchored [2] of 0.2 nM and a Fold Activation over basal signal, NF-kB-Luc, FcgR anchored [2] of 5 fold. It also gave an IC50, blocking of hGITRL stimulation, NF-kB-Luc, FcgR anchored [2] of 0.01 nM, a fold activation, T-cell proliferation, 33 nM, FcgR anchored, donor 1 [2] of 1.1 fold and a fold activation, T-cell proliferation, 33 nM, FcgR anchored, donor 2 [2] of 0.1 fold. For the same binder, the fold activation, T-cell proliferation, 33 nM, FcgR anchored, donor 3 [2] was 1 fold, the fold activation, T-cell proliferation, 33 nM, FcgR anchored, donor 4 [2] was 1 fold and the fold activation, T-cell proliferation, 33 nM, FcgR anchored, donor 5 [2] was 1.2 fold. For the same binder, the fold activation, T-cell proliferation, 33 nM, FcgR anchored, mean [2] was 1.3 fold.
